In the supplement of paper PMC9732359:
± gives the uncertainty stated by the source.

test: protein stability index of a GFP-peptide fusion (yeast GPS) (PSI 1-4); higher = more stable; sorted into four equal gates, so the index is relative within each strain; settings: pdr5∆
Method in brief: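 Tiled 17-residue yeast protein peptides were fused downstream of GFP in a plasmid that also expresses Cherry, and the pooled library was carried in yeast. Mid-log cultures in leucine-free medium were sorted into four equal gates by GFP/Cherry fluorescence ratio, and plasmids from each gate were PCR-amplified and Illumina-sequenced, with reads assigned to strains by barcodes. The protein stability index for each peptide was each gate's read frequency times its gate number, summed.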

Sequence | protein stability index
LVLADAFDIELSEFGIK [YCS4] | 3.06 ± 0.057
LVLLELVSSGDRFIELI [YML103C/NUP188] | 2.08 ± 0.07
LVLNKSSIDRGFGRCET [RET1] | 3.11 ± 0.23

same assay, conditions: san1∆

Sequence | protein stability index
LKNLLRSNFRVNLSQEA [SNU114] | 2.58 ± 0.11
LKNTKYFQQTTIDWVEA [PRP8] | 2.83 ± 0.054
LKPVDKLKPMNIERKQT [SIN4] | 2.83 ± 0.088
LKTFNGSLALLKLSMAD [POP4] | 2.45 ± 0.063
LKVRKGHIAKLMATEYQ [RPB2] | 1.28 ± 0.19
LKWIDTASKFGKGRFQT [RPL3] | 3.11 ± 0.071
LLDVKLAIDNMYILGMC [YCG1] | 1.86 ± 0.071
LLDVVKGTEASNDIIDK [YDL116W/NUP84] | 1.92 ± 0.15
LLHETNDSFKGLITNKM [PRP8] | 3.06 ± 0.12
LLHNHLKSIESLKLENS [SMC2] | 1.24 ± 0.28
LLIATNLKEYNKFMSIF [SRB8] | 2.17 ± 0.2
LLISDTESNELIQKLQN [IRR1] | 2.38 ± 0.073
LLNKNTGNNLYDRNSNN [SWI1] | 2.7 ± 0.064
LLPLVVSNISCLTGTVA [ECM29] | 1.38 ± 0.094
LLQGGAKVVVTTSRFSK [FAS2] | 2.72 ± 0.056
LLSIKLPGKVNTKEEFA [SNF5] | 1.78 ± 0.16
LLSKKHGQLKLSIQYMI [RPN5] | 1.36 ± 0.094
LLTCYELEKKYHGNECE [SRB8] | 3.3 ± 0.068
LLVKFIKFFWNNTHVGR [YLR018C/POM34] | 2.51 ± 0.085
LLVVIFKKTLRSRISSP [SRB4] | 1.77 ± 0.13
LMKKACYVGLLTAIPIL [SNU114] | 1.53 ± 0.054
LMNGVKPFKSFLKKNII [FAS1] | 3.36 ± 0.16
LNAINNAEKTGKRQVLL [RPS22B] | 3.26 ± 0.072
LNFSTTAPANTTDANGS [MED2] | 2.58 ± 0.056

Sequence | protein stability index
LNIGLGAVGLKDLTLCR [YCS4] | 2.15 ± 0.095
LNLDEIVACELILSGDT [YJL039C/NUP192] | 3.05 ± 0.096
LNLNNSELQPQNRSLQE [SNF2] | 3.31 ± 0.08
LNPNEYFSVTTARRNVS [SWI3] | 1.85 ± 0.14
LNQLDGFETSKNIKIIM [RPT6] | 2.74 ± 0.14
LNRIKKYLLTQRVFKPV [PRP8] | 2.33 ± 0.096
LPEQLKSGKFCSHCGCV [SNM1] | 2.89 ± 0.076
LPKVRYNVEKVKRLMDF [NSL1] | 1.96 ± 0.13
LPLNKPRLEKLINEILL [RGR1] | 2 ± 0.077
LPTTVVSNPGDNPPPAD [MED2] | 3.04 ± 0.051
LPTVGFDFIKDNETPSK [YOR098C/NUP1] | 3.08 ± 0.068
LPVKEFQIIDTLLPGLQ [RPS2] | 1.95 ± 0.089
LPVKHPELFESLGIAQP [RPT6] | 2.55 ± 0.077
LPVNIRRIIQNAQQTFH [RPO21] | 2.64 ± 0.075
LQIESVTKETVHPRKSY [PRP8] | 2.97 ± 0.054
LQIGDVVERHLEDGDVV [RPO31] | 3.49 ± 0.069
LQKQILTVENKLQFETD [SMC1] | 2.55 ± 0.047
LQKVENQTIKEAKDAII [YIL149C/MLP2] | 3.04 ± 0.045
LQMYSKIRRHPNIMLIF [FAS1] | 1.97 ± 0.08
LQRDLFIRLPHWPLNWY [RGR1] | 2.11 ± 0.082
LQVSEKDLFELERYYKE [ARP7] | 3.48 ± 0.14
LQWHAMIELICSSATVP [AAR2] | 1.59 ± 0.11
LQYANNAVISHANAAAV [SIN4] | 1.91 ± 0.049
LRDHALSLTAFTKNEEK [ITC1] | 1.38 ± 0.076

Sequence | protein stability index
LREAPADYWTHAYRDVL [SNF6] | 3.42 ± 0.17
LREEIFIANEGVHTGQF [RPL2A] | 2.92 ± 0.06
LRIVTHLAICLDIINPG [YDL116W/NUP84] | 1.57 ± 0.095
LRLDGHTKSDERSELLR [SNF2] | 3.38 ± 0.079
LRLGRGINPNTFRIFHN [YDL088C/ASM4] | 1.86 ± 0.11
LRLPFSAAMSIDKLSDV [PRP8] | 2.24 ± 0.048
LRLRISRKRNEEEDAKN [RPL31A] | 3.35 ± 0.16
LRLTEQKSPKIRDPLTQ [RPC82] | 1.91 ± 0.12
LRNKIAGYTTHLMKRIQ [RPS17A] | 2.31 ± 0.12
LRSRLQQQQQQQQQTSP [SNF5] | 2.76 ± 0.05
LRTVKEVQFGLFSPEEV [RPO21] | 3.02 ± 0.046
LRVDEVQGKNLLTNFHG [RPS1A] | 3.3 ± 0.047
LRYYKNIWLNNKIINWE [NUT1] | 2.2 ± 0.22
LSDNAKTLHSQMMSKGI [RPC34] | 3.26 ± 0.071
LSGLAQRKTNGASNGDD [BRN1] | 3.05 ± 0.077
LSINEKDFVTMAIEIIN [YCG1] | 2.14 ± 0.093
LSKMRDSVLQLASFEKT [RPO31] | 2.91 ± 0.11
LSLTAVPSFLRPDITMY [GRR1] | 2.18 ± 0.051
LSNPSNQNICTSVTRRS [GRR1] | 2.62 ± 0.055
LSRLSTASKIIVIDVDY [MED1] | 2.2 ± 0.051
LSSYQKKIIKCDEHMGL [PRE5] | 2.19 ± 0.21
LSTLPAGKSLVSKSEPK [QCR2] | 2.68 ± 0.11
LTADARSMIEHARTAAV [PUP2] | 2.38 ± 0.16
LTEAVEDGPRPFKVFLD [RPL5] | 3.02 ± 0.052

Sequence | protein stability index
LTEEELKTRYVGRQDPK [RPN11] | 3.26 ± 0.14
LTFILGQLLSVKFLVYQ [YML031W/NDC1] | 1.51 ± 0.19
LTFVSVDEELGPSIYKT [SCL1] | 3.02 ± 0.054
LTGEAEIEQPVTTFVFT [FAS1] | 2.64 ± 0.096
LTHVDLIEKFLRYNPLE [RPB10] | 3.23 ± 0.071
LTIFDSVDESARIKDAF [YJL039C/NUP192] | 3.19 ± 0.051
LTIVTCKQFPKLSCIQL [SRB8] | 1.46 ± 0.05
LTKKKNEEINKKSLEED [SEM1] | 2.77 ± 0.18
LTKYIRSKNLIFNGETL [GRR1] | 1.92 ± 0.078
LTNGVTEHVRQNAKLLA [RRP6] | 1.99 ± 0.23
LTVIEKLDSKKILPTDI [SRP68] | 2.95 ± 0.1
LTYLYEMKNIRGPYLVI [SNF2] | 1.27 ± 0.098
LVAKLKKVKSASKKSGG [SMC4] | 2.13 ± 0.12
LVDENTDYLYRRLHDEN [YCS4] | 2.68 ± 0.063
LVDNLNAEVVAGNIKCR [BRR2] | 1.72 ± 0.14
LVDVMTTQGGLTSVTRH [RPO21] | 2.1 ± 0.09
LVEARSLGHQTSLITAV [MTR3] | 2.79 ± 0.082
LVEPSKVGQFDQVLNLC [FAS1] | 2.78 ± 0.11
LVFCKHITSVPISAVLR [GRR1] | 1.92 ± 0.088
LVISLAATNETFENINS [IRR1] | 1.9 ± 0.095
LVLADAFDIELSEFGIK [YCS4] | 2.9 ± 0.068
LVLLELVSSGDRFIELI [YML103C/NUP188] | 2.21 ± 0.068
LVLNKSSIDRGFGRCET [RET1] | 2.76 ± 0.12

same assay, conditions: ubr1∆

Sequence | protein stability index
LKNLLRSNFRVNLSQEA [SNU114] | 2.58 ± 0.11
